Experimental data reported in patent US20250289893A1 (OXFORD UNIVERSITY INNOVATION, published 2025).

T1: Cynomolgus monkey CD1a protein (Cynomolgus monkey)
T1 chain: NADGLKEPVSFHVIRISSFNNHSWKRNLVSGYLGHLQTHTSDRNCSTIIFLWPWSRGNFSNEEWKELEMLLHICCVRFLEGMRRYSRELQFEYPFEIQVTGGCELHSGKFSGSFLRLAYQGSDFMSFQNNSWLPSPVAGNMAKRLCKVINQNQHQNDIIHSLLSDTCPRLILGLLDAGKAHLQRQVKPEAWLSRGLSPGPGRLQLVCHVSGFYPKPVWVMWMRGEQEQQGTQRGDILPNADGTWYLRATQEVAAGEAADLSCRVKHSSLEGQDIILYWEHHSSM


What was measured:
[1] = target: T2, chimeric CD1a pool B protein [human CD1a lipid binding domain, mouse CD1d Ig domain] (human; mouse, UniProt P06126 18-201; P11609 205-297, limits assumed); test: ELISA, 0.1 µg/ml antibody
Method: (§1) CD1a-specific antibodies were identified by ELISA. […] 20 μl/well of peroxidase-conjugated goat anti-species IgG Fc-specific F(ab′)2 fragment (Jackson ImmunoResearch), diluted 1:5000 in block buffer was added and incubated at room temperature for 1 hour, followed by washing with wash buffer.
(§2) The antibodies were titrated through a dilution series and compared to a control rabbit IgG antibody. […] Data shown for purified antibodies.

[2] = target: T3, human CD1c expressed on HEK-293 cells (human, UniProt P29017 18-333; P61769 21-119); test: flow cytometry, HEK-293 cells
T3 construct: also called HEK - CD1c
Method: (§3) Binding to proteins expressed on HEK, C1R and MOLT4 cell lines was assessed. […] The C1R-CD1a, C1R-empty vector and MOLT4 cell lines were washed in 1×PBS on the day required. All cell lines were counted and resuspended in 1×PBS and then stained for 30 minutes at 37° C. using the DiI or DiO cellular stains (Invitrogen). Cells were washed with flow cytometry buffer (1% bovine serum albumin, 2 mM EDTA and 0.1% sodium azide in PBS) before mixing 2 DiI-stained and DiO-stained populations together. The cells (20 μl/well) were then added to dilutions of antibody sample (B cell culture supernatant, TAP supernatant, clone supernatant, purified antibody solution) (20 μl/well) and incubated for 1 hour at 4° C. in a flow cytometry assay plate, before being washed with flow cytometry buffer. 10 μl/well of Alexafluor647-conjugated goat anti-species IgG Fc-specific F(ab′)2 fragment (Jackson ImmunoResearch), diluted 1:2500 in flow cytometry buffer, was added and incubated at 4° C. for 30 minutes, followed by washing with wash buffer. The fluorescence intensity was then measured on an iQue screener PLUS.
(§4) HEK-293 cells were transiently transfected with human CD1a, CD1b, CD1c or CD1d and co-transfected with human β2M.

[3] = target: T4, human CD1b expressed on HEK-293 cells (human, UniProt P29016 18-333; P61769 21-119); test: flow cytometry, HEK-293 cells
T4 construct: also called HEK - CD1b
Method: as §3, §4

[4] = target: T5, human CD1d expressed on HEK-293 cells (human, UniProt P15813 20-335; P61769 21-119); test: flow cytometry, HEK-293 cells
T5 construct: also called HEK - CD1d
Method: as §3, §4

[5] = target: T6, human CD1a expressed on cells (human, UniProt P06126 17-327; P61769 21-119); test: flow cytometry, HEK-293 cells, 0.0316 µg/ml antibody
T6 construct: also called HEK - CD1a; C1R - CD1a
Method: as §3, §4

[6] = target: T3, human CD1c expressed on HEK-293 cells; test: as above
Method: as §3, §4

[7] = target: T4, human CD1b expressed on HEK-293 cells; test: as above
Method: as §3, §4

[8] = target: T5, human CD1d expressed on HEK-293 cells; test: as above
Method: as §3, §4

[9] = target: T2, chimeric CD1a pool B protein [human …; test: ELISA, 1 µg/ml antibody
Method: as §1, §2

[10] = target: T6, human CD1a expressed on cells; test: flow cytometry, C1R cells, 1 µg/ml antibody
Method: as §3
(§5) Binding was quantified as fold change in fluorescence intensity geomean over background assessed by flow cytometry.

[11] = target: T1, Cynomolgus monkey CD1a protein; test: ELISA, 10 µg/ml antibody
[12] = target: T6, human CD1a expressed on cells; test: flow cytometry, MOLT4 cells, 31.6 µg/ml antibody
Method: CD1a-specific antibodies were identified by flow cytometry. Binding to proteins expressed on HEK, C1R and MOLT4 cell lines was assessed. […] The C1R-CD1a, C1R-empty vector and MOLT4 cell lines were washed in 1×PBS on the day required. All cell lines were counted and resuspended in 1×PBS and then stained for 30 minutes at 37° C. using the DiI or DiO cellular stains (Invitrogen). Cells were washed with flow cytometry buffer (1% bovine serum albumin, 2 mM EDTA and 0.1% sodium azide in PBS) before mixing 2 DiI-stained and DiO-stained populations together. The cells (20 μl/well) were then added to dilutions of antibody sample (B cell culture supernatant, TAP supernatant, clone supernatant, purified antibody solution) (20 μl/well) and incubated for 1 hour at 4° C. in a flow cytometry assay plate, before being washed with flow cytometry buffer. 10 μl/well of Alexafluor647-conjugated goat anti-species IgG Fc-specific F(ab′)2 fragment (Jackson ImmunoResearch), diluted 1:2500 in flow cytometry buffer, was added and incubated at 4° C. for 30 minutes, followed by washing with wash buffer. The fluorescence intensity was then measured on an iQue screener PLUS.
as §5

[13] = target: T2, chimeric CD1a pool B protein [human …; test: ELISA, 10 µg/ml antibody
Method: as §1, §2

[14] = target: T6, human CD1a expressed on cells; test: flow cytometry, C1R cells, 31.6 µg/ml antibody
Method: as §3, §5

[15] = target: T2, chimeric CD1a pool B protein [human …; test: ELISA, 0.316 µg/ml antibody
Method: as §1, §2

[16] = target: T7, human CD1a protein (pool B) (human, UniProt P06126 18-295, limits assumed); test: SPR (Biacore T200), antibody captured, human CD1a titrated, 1:1 binding model
T7 construct: Recombinant protein of the ELISA (coated) and the Biacore T200 titration; whole entry named; also called human CD1a pool B; full length CD1a
Method: The affinity of the purified antibodies to human CD1a was assessed using a Biacore T200 instrument (GE Healthcare) by capturing the antibody to an immobilized anti-species IgG F(ab′)2 followed by titration of human CD1a. Affinipure Goat anti-species IgG-F(ab′)2 fragment specific (Jackson ImmunoResearch) was immobilized on a CM5 Sensor Chip (GE Healthcare) via amine coupling chemistry to a capture level of ˜5000 response units (RUs). HBS-EP+ buffer (10 mM HEPES pH 7.4, 0.15 M NaCl, 3 mM EDTA, 0.05% Surfactant P20, GE Healthcare) was used as the running buffer with a flow rate of 10 μL/min. A 10 μL injection of test antibody at 0.5 μg/mL was used for capture by the immobilized Goat Anti-species Fab.
The surface was regenerated between cycles by injection of 2×10 μL of 40 mM HCl, interspersed by a 10 μL injection of 5 mM NaOH at flowrate of 10 μL/min. Background subtraction binding curves were analyzed using the Biacore T200 evaluation software following standard procedures. Kinetic parameters were determined from the fitting algorithm. This assay was performed at the clone supernatant and purified antibody stage.
Affinity was required to be <100 nM to be considered for progression.

[17] = target: T2, chimeric CD1a pool B protein [human …; test: ELISA, 100 µg/ml antibody
Method: as §1, §2

[18] = target: T7, human CD1a protein (pool B); test: ELISA, 31.6 µg/ml antibody
Method: as §1
The antibodies were titrated through a dilution series and compared to a control rabbit IgG antibody.

[19] = target: T6, human CD1a expressed on cells; test: flow cytometry, C1R cells, 0.1 µg/ml antibody
Method: as §3, §5

[20] = target: Chinese variant CD1a protein (human) (UniProt P06126); test: ELISA, 0.1 µg/ml antibody
[21] = target: T6, human CD1a expressed on cells; test: flow cytometry, HEK-293 cells, 0.1 µg/ml antibody
Method: as §3, §4

[22] = target: T3, human CD1c expressed on HEK-293 cells; test: flow cytometry, HEK-293 cells, 0.1 µg/ml antibody
Method: as §3, §4

[23] = target: T4, human CD1b expressed on HEK-293 cells; test: flow cytometry, HEK-293 cells, 0.1 µg/ml antibody
Method: as §3, §4

[24] = target: T5, human CD1d expressed on HEK-293 cells; test: flow cytometry, HEK-293 cells, 0.1 µg/ml antibody
Method: as §3, §4

T2 sequence (P06126 other isoform, or with tags, fused parts or gaps mutant limits assumed): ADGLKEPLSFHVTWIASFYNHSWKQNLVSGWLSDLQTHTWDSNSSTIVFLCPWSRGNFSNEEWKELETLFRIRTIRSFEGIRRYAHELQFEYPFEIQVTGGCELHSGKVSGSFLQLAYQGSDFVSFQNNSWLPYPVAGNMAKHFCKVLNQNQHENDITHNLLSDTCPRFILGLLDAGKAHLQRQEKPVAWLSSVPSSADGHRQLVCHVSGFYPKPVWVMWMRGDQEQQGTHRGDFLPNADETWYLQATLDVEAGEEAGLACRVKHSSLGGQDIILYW
Chinese variant CD1a protein (human), sequence (P06126 18-295, change not shown): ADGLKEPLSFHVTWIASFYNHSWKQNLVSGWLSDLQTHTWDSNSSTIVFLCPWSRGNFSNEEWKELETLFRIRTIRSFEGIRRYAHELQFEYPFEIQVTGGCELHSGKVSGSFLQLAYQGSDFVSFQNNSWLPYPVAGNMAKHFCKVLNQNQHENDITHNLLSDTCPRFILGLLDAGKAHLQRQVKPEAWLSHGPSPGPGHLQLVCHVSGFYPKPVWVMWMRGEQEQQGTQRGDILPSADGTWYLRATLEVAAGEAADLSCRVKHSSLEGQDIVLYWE
T7 sequence (P06126 18-295 limits assumed): as the sequence (P06126 18-295, change not shown) above

Binder	Optical Density (OD) [1]	binding result [2]	binding result [3]	binding result [4]	Fluorescence Intensity Geomean (normalized to background) [5]	Fluorescence Intensity Geomean (normalized to background) [6]	Fluorescence Intensity Geomean (normalized to background) [7]	Fluorescence Intensity Geomean (normalized to background) [8]	Optical Density (OD) [9]	Fluorescence Intensity Geomean (normalized to background) [10]	Optical Density (OD) [11]	Fluorescence Intensity Geomean (normalized to background) [12]	Optical Density (OD) [13]	Fluorescence Intensity Geomean (normalized to background) [14]	Optical Density (OD) [15]	Kd [16]	Optical Density (OD) [17]	Optical Density (OD) [18]	Fluorescence Intensity Geomean (normalized to background) [19]	Optical Density (OD) [20]	also measured
77A (VR11851) (antibody, V domains shown, also called OX77a; antibody 77a) VH: QSVEESGGRLVTPGTPLTLTCTVSGFSLSSYAMSWVRQAPGKGLEWIGIISSSGTTYYASWAKGRFTISKTSTTVDLKITSPTTEDTATYFCARVDYYSSGWGGLWGPGTLVTVSS VL: AVEMTQTPASMSAAVGGTVTIKCQASEDIYSNLAWYQQKPGQPPKLLIYGASTLASGVPSRFKGSGSGTEYTLTISGVQCDDAATYYCQCTYDTSSYGNTFGGGTEMVVE	1.25 OD	no binding (tested: 100 µg/ml (highest tested))	no binding (tested: 100 µg/ml (highest tested))	no binding (tested: 100 µg/ml (highest tested))	24.9 fold over background	1 fold over background	0.9 fold over background	0.9 fold over background	1.26 OD	10.3 fold over background	0.52 OD	2.2 fold over background	1.31 OD	1.3 fold over background	1.28 OD	0.24 nM	1.27 OD	1.28 OD	16.4 fold over background	1.05 OD	koff [16]: 0.000113 s⁻¹; kon [16]: 469000 M⁻¹ s⁻¹; Fluorescence Intensity Geomean (normalized to background) [21]: 43.8 fold over background; Fluorescence Intensity Geomean (normalized to background) [22]: 0.9 fold over background; Fluorescence Intensity Geomean (normalized to background) [23]: 1 fold over background; Fluorescence Intensity Geomean (normalized to background) [24]: 0.9 fold over background
110 (VR12112) (antibody, V domains shown, also called OX110; antibody 110) VH: QSVEESGGRLVTPGTPLTLTCTVSGFSLSSYAMIWVRQAPGKGLEWIGIINSSDNTHYATWAKGRFTISKTSTTVDLKITSPTTEDTATYFCARDPYDYGYGWYFDLWGPGTLVTVSS VL: AQVLTQTPSPVSAAVGGTVTINCQASQSVFNNKNLAWYQQKPGQPPKLLIYKASTLASGVSSRFKGSGSGTQFALTISGVQCDDAATYYCQGEFSCSSTDCVTFGGGTEVVVK	1.02 OD	no binding (tested: 100 µg/ml (highest tested))	no binding (tested: 100 µg/ml (highest tested))	no binding (tested: 100 µg/ml (highest tested))	8.9 fold over background	1 fold over background	1 fold over background	1 fold over background	1.45 OD	28.2 fold over background	0.86 OD	7.5 fold over background	1.46 OD	6.2 fold over background	1.24 OD	1.97 nM	1.4 OD	1.24 OD	25.8 fold over background	1.57 OD	Fluorescence Intensity Geomean (normalized to background) [21]: 20.2 fold over background; Fluorescence Intensity Geomean (normalized to background) [22]: 1 fold over background; Fluorescence Intensity Geomean (normalized to background) [23]: 1 fold over background; Fluorescence Intensity Geomean (normalized to background) [24]: 1 fold over background
111 (VR12113) (antibody, V domains shown, also called OX111) VH: QSVEESGGRLVTPGTPLTLTCTASGFSLSTYAMSWVRQAPGKGLEWIGIISSSGSTYYASWAKGRFTISKTSTTVDLKITSPTTEDTATYFCARETWYWLDLWGQGTLVTVSS VL: AVEMTQTPASVSAAVGGTVTINCQASEDIYSNLAWYQQKPGQPPKLLIYGASTLASGVPSRFKGSGSGTEYTLTISGVQCDDAATYYCQCAYDSSSYGTPFGGGTEVVVK	1.25 OD	no binding (tested: 100 µg/ml (highest tested))	no binding (tested: 100 µg/ml (highest tested))	no binding (tested: 100 µg/ml (highest tested))	11.1 fold over background	1 fold over background	1 fold over background	1 fold over background	1.36 OD	28 fold over background	0.79 OD	5.4 fold over background	1.4 OD	7 fold over background	1.32 OD	≤ 0.0312 nM	1.27 OD	1.07 OD	25.4 fold over background	1.52 OD	koff [16]: < 1e-05 s⁻¹; kon [16]: 321000 M⁻¹ s⁻¹; Fluorescence Intensity Geomean (normalized to background) [21]: 23.1 fold over background; Fluorescence Intensity Geomean (normalized to background) [22]: 1 fold over background; Fluorescence Intensity Geomean (normalized to background) [23]: 1 fold over background; Fluorescence Intensity Geomean (normalized to background) [24]: 1 fold over background
116 (VR12117) (antibody, V domains shown, also called OX116) VH: QSVEESGGRLVTPGTPLTLTCTVSGFSLSNYAMSWVRQAPGKGLEWIGIIYTTGFTYYASWVKGRFTISKTSTTVDLKITSPTTEDTATYFCARGLATYVSPPTRLDLWGQGTLVTVSS VL: AQVLTQTPSPVSAAVGGTVTINCQASQSIYNSKNLAWYQQKPGQPPKLLIYSASTLASGVPSRFKGSGSGTQFTLTISDLECDDAATYYCQGEFSCSSVDCATFGGGTEVVVK	1.25 OD	no binding (tested: 100 µg/ml (highest tested))	no binding (tested: 100 µg/ml (highest tested))	no binding (tested: 100 µg/ml (highest tested))	15.7 fold over background	1 fold over background	1 fold over background	1 fold over background	1.42 OD	28.7 fold over background	0.16 OD	5.6 fold over background	1.4 OD	13.7 fold over background	1.32 OD	2.89 nM	1.37 OD	1.16 OD	27 fold over background	1.53 OD	koff [16]: 0.0014 s⁻¹; kon [16]: 483000 M⁻¹ s⁻¹; Fluorescence Intensity Geomean (normalized to background) [21]: 26.7 fold over background; Fluorescence Intensity Geomean (normalized to background) [22]: 1 fold over background; Fluorescence Intensity Geomean (normalized to background) [23]: 1 fold over background; Fluorescence Intensity Geomean (normalized to background) [24]: 1.1 fold over background
